In publication doi:10.1101/2025.11.18.689095 (2025) one finds Kd data, which are given here for one molecule.

For test [1], the target named is T1, human Tom70 (residues 108–608) (human, UniProt O94826 108-608).
T1 chain: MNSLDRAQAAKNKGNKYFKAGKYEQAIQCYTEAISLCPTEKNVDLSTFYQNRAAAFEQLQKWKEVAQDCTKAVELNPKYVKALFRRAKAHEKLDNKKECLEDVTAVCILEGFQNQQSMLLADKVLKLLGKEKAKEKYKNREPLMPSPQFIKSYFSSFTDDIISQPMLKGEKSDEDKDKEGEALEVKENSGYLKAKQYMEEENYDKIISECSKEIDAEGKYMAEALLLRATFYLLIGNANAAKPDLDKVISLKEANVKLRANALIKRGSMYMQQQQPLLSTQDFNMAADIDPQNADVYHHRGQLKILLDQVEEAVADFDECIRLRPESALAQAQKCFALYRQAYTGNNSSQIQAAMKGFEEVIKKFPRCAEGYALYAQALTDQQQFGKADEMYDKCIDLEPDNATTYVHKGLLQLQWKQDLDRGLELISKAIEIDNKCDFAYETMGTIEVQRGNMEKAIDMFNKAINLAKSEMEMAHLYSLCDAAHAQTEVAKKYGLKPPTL
The test can be described thus: ITC; run 1. (In ITC the heat of successive injections is recorded.)

Test [2] deals with T1, human Tom70 (residues 108–608). The test is described as follows: ITC.
Test [3] deals with T2, Tom70:Orf9b_(Helix) complex (human | SARS-CoV-2, UniProt O94826 108-608).
T2 chain 1: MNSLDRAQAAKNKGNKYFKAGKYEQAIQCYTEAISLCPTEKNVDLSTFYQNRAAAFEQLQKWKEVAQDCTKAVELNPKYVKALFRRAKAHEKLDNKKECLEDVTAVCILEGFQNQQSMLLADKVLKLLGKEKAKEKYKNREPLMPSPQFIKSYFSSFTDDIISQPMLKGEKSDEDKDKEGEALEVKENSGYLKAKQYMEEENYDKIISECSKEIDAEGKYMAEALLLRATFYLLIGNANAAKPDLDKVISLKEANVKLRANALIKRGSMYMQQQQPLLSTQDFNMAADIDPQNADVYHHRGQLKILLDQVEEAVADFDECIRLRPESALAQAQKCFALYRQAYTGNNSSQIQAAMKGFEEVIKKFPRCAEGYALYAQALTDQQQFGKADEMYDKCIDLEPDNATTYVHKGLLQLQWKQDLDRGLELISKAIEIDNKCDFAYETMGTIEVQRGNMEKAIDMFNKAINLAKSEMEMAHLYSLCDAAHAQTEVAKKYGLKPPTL
T2 chain 2: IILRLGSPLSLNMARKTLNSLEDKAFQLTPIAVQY
The test is described as follows: ITC.

Test [4] deals with T1, human Tom70 (residues 108–608). The test is described as follows: ITC; run 3.
For test [5] the target is unchanged. The test can be described thus: ITC; average.
For test [6] the target is unchanged. The test can be described thus: ITC; run 2.
Test [7] deals with T2, Tom70:Orf9b_(Helix) complex. The test can be described thus: ITC.

Values joined by “and” are separate entries in the source; they are usually repeats but may differ in a detail not shown here. Identical values can stand only once. Like-named read-outs stand apart in the source and are kept apart here. Where no end group is shown, it is not given here.

A word on the Kd: it is the concentration at which binding is half-saturated. For the molecule YDTSRMEEVD-OH [Hsp90_(EEVD) peptide], the Kd in test [1] was determined as 12.8 µM; in test [2], 12 µM; in test [3], 12 µM; in test [4], 11.9 µM; in test [5], 11.9 µM; in test [6], 10.9 µM. For the same molecule, in test [7], the Kd was 12.4 µM and 12.8 µM and 12.3 µM and 11.8 µM.
